US20190309034A1 (Boehringer Ingelheim, published 2019)

Tests used:
[1] = biological target: T1, Recombinant soluble trimeric human BAFF (furin-cleaved human BAFF 134-285) (human, UniProt Q9Y275 134-285); assay: SPR, antibody captured on Protein A/G, soluble trimeric BAFF flowed over, 1:1 Langmuir global fit, apparent affinity (at detection limit)
T1 construct: Made from His-tagged BAFF(72-285) by furin cleavage; trimeric status confirmed by analytical ultracentrifugation; also called Soluble trimeric huBAFF; soluble trimeric BAFF
Protocol: Apparent binding affinities were evaluated using surface plasmon resonance where the antibodies were captured at different surface densities on a Protein A/G surface. Soluble trimeric BAFF at different concentrations were flowed over the captured antibody. Clinical reference antibodies (Reference 1 comprising SEQ ID NOS: 98 and 116) and Reference 2 comprising SEQ ID NOS: 99 and 117) were used as comparators.

[2] = biological target: T1, Recombinant soluble trimeric human BAFF …; assay: cell-based or functional assay
[3] = biological target: Recombinant soluble 60-mer human BAFF (His-HuBAFF 134-285) (human, UniProt Q9Y275 134-285); assay: cell-based or functional assay
[4] = biological target: Human membrane-bound BAFF (mbBAFF) (human, UniProt Q9Y275 1-285); assay: cell-based or functional assay
[5] = biological target: T1, Recombinant soluble trimeric human BAFF …; assay: cell-based or functional assay; remark: listed apart in the source

Binder	Kd [1] [pM]	Soluble trimeric huBAFF (52 pM) Neutralization IC90 [2] [pM]	Soluble 60-mer huBAFF (4.2 pM) Neutralization IC90 [3] [pM]	IC50 (neutralisation of mbBAFF activation of human BAFFR, fixed mbBAFF-CHO mixed with luciferase reporter BAFFR-CHO cells) [4] [pM]	IC50 (neutralisation of soluble trimeric huBAFF activation of human BAFFR, luciferase reporter CHO cells) [5] [pM]	IC90 (neutralisation of soluble trimeric huBAFF activation of human BAFFR, luciferase reporter CHO cells) [5] [pM]
210D9B8 (antibody, V domains shown, Mouse lead antibody (hybridoma)) VH: QVQLQQPGTEFVKPGASVKLSCEASGYTFITYWMHWVKQRPGRGLEWIGGIDPNSGVIKYNEKFKSKATLTVDKPSSTAYMQLSSLTSEDSAVYYCARGEDLLIRTDAMDYWGQGTSVTVSS VL: DIVMTQSQKFVSTTLGDRVSITCKASQSVGIAVAWYQQKPGHSPNLLIFSTSNRYTGVPDRFTGSGSGTDFTLTISDVQSEDLADYFCQQYSRYPRTFGGGTKLEIK	< 10	156	14			
13J018-1A4 (antibody, V domains shown, Mouse lead antibody (hybridoma)) VH: QVQLQQSGPEVVRPGASVKISCKAPDHIFSIHWMQWVRQRPGPGLEWIGEIFPGSGTTDYNEKFKGKATVTVDRGSRSAYMQFNSLTSEDSAVYFCASGAFDYWGQGTTLTVSS VL: DIQMTQSPSSLSASLGERVSLTCRASQDIGNRLNWLQQEPDGTIKRLIYATSSLDSGVPKRFSGSRSGSDYSLTISSLESEDFVDYYCLQYASSPFTFGTGTKLEIK	< 10	305	23	290	110	350
Ch-13J0-18-1A4 (antibody, V domains shown) VH: QVQLQQSGPEVVRPGASVKISCKAPDHIFSIHWMQWVRQRPGPGLEWIGEIFPGSGTTDYNEKFKGKATVTVDRGSRSAYMQFNSLTSEDSAVYFCASGAFDYWGQGTTLTVSS VL: DIQMTQSPSSLSASLGERVSLTCRASQDIGNRLNWLQQEPDGTIKRLIYATSSLDSGVPKRFSGSRSGSDYSLTISSLESEDFVDYYCLQYASSPFTFGTGTKLEIK				410	160	450
206G9A10 (antibody, V domains shown, Mouse lead antibody (hybridoma)) VH: QVQLQQPGAELVKPGASVKLSCKASGYTFSIFCIHWVQQRPGRGLEWIGRIDPSSGGTKYNEKFESKATLTVDKSSSTAYMQLSSLTSEDSAVYYCARGEDLLVRTDAMDYWGQGTSVTVSS VL: DIVMTQSQKFMSTTVGDRVSITCKASQNAGAAVAWFQQKPGQSPKLLIYSASNRYTGVPDRFTGSGSGTDFTLTISNVQSEDLADYICQQYRSYPRTFGGGTKLEIK	< 10	35.1	0.2			
227D3B11 (antibody, V domains shown, Mouse lead antibody (hybridoma)) VH: QVQLQQPGAELVKPGASVKLSCKASGYSFSTFFIHWIQQRPGRGLEWIGRIDPNSGGTKYNEKFESKATLTVDKPSSTAYMHLSSLTSEDSAVYYCARGEDLLIRTDAMDYWGQGTSVTVSS VL: DIVMTQSQKIMSTTVGDRVSITCKASQNAGIDVAWFQQKPRQSPKLLIFSTSNRYTGVPDRFAGSGSGTDFTLTIYNVQSEDLADYFCLQYRSYPRTFGGGTKLEIK	< 10	128	1.6			
Ch-235F5B9 (antibody, V domains shown) VH: QVQLQQPGAELVKPGASVKLSCKASGYSFSTFFIHWIQQRPGRGLEWIGRIDPNSGATKYNEKFESKATLTVDKPSSTAYMHLSSLTSEDSAVYYCARGEDLLIRTDALDYWGQGTSVTVSS VL: DIVMTQSQKIMSTTVGDRVSITCKASQNAGIDVAWFQQKPRQSPKLLIFSKSNRYTGVPDRFAGSGSGTDFTLTIYNVQSEDLADYFCLQYRSYPRTFGGGTKLEIK				190	130	270
217H12A7 (antibody, V domains shown, Mouse lead antibody (hybridoma)) VH: QVQLQQPGAELVKPGASVKLSCKASGYTFSTFLIHWVQQRPGRGLEWIGRIDPNSGGTKYNEKFERKVTLTVDKPSSTAYMQLSSLTSEDSAVYYCARGEDLLLRTDAMDYWGQGTSVTVSS VL: DIVMTQSQKFMSTTVGDRVSITCKASQNAGTAVAWFQQKPGQSPKLLIYSAFNRYTGVPDRFTGSGSGTDFTLTISNMQSEDLADYICQQYRSYPRTFGGGTKLEIK	< 10	129	13.4			
214G4B7 (antibody, V domains shown, Mouse lead antibody (hybridoma)) VH: QVQLQQPGAEFVKPGASVKLSCKASGYSFSTFCIHWVQQRPGRGLEWIGRIDPNSGGTKYNEKFESKATLTIDKPSSTAYVHLSSLTSEDSAVYYCARGEDLLIRTDAMDYWGQGTSVTVSS VL: DIVMTQSQKFMSTTVGDRVSITCKASQNAGTAVAWFQQKPGQSPKLLIFSTSNRYTGVPDRFTGSGSGTDFTLTISNMQSEDLADYFCLQYRSYPRTFGGGTKLEIK	< 10	296	3			
235F5B9 (antibody, V domains shown, Mouse lead antibody (hybridoma)) VH: QVQLQQPGAELVKPGASVKLSCKASGYSFSTFFIHWIQQRPGRGLEWIGRIDPNSGATKYNEKFESKATLTVDKPSSTAYMHLSSLTSEDSAVYYCARGEDLLIRTDALDYWGQGTSVTVSS VL: DIVMTQSQKIMSTTVGDRVSITCKASQNAGIDVAWFQQKPRQSPKLLIFSKSNRYTGVPDRFAGSGSGTDFTLTIYNVQSEDLADYFCLQYRSYPRTFGGGTKLEIK	< 10	107	2.2	180	110	210
250E5A11 (antibody, V domains shown, Mouse lead antibody (hybridoma)) VH: QVQLQQPGTELVKPGASVKLSCKASGYTFSIFCIHWVQQRPGRGLEWIGRIDPSSGGTKYNERFENKATLTVDKSSSTAYMQLSSLTFEDSAVYYCARGEDLLVRTDAMDYWGQGTSVTVSS VL: DIVMTQSQKFMSTTVGDRVSITCKASQNAGAAVAWFQQKPGQSPKLLIYSASNRYTGVPDRFTGSGSGTDFTLTITNVQSEDLADYICQQYRSFPRTFGGGTKLEIK	< 10	97.5	0.3			
227D5A7 (antibody, V domains shown, Mouse lead antibody (hybridoma)) VH: QVQLQQPGAELVKPGASVKLSCKASGYTFSIFCVHWVQQRPGRGLEWIGRIDPSSGGTKYNEKFESKATLTVDKSSSTAYMQLSSLTPEDSAVYYCARGEDLLVRTDALDYWGQGSSVTVSS VL: DIVMTQSQKFMSTTVGDRVSITCKASQNAGAAVAWFQQKPGQSPKLLIYSASNRYTGVPDRFTGSGSGTDFTLTISNVQSEDLADYICQQYRSFPRTFGGGTKLEIK	< 10	56.8	0.8			
